The text below walks through data of patent publication US20190276499A1, “Protein VII Fragments and Methods of Use Thereof for the Treatment of Inflammatory Disorders” (priority 2016, published 2019).

Holding throughout (type): cell-based
The target in experiment [1] is T1, HMGB1 (Homo sapiens, UniProt P09429).
T1 sequence (P09429 1-215): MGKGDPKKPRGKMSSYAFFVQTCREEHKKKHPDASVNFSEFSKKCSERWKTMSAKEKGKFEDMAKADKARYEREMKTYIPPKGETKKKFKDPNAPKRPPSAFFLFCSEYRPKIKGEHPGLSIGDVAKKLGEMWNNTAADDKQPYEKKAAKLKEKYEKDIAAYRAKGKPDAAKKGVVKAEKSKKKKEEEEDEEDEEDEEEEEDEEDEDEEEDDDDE
Briefly: Immunofluorescence of HMGB1 localization in A549 cells. Also on record: endogenous in cells; host or cells: A549. Here is the method:
(§1) Cells were grown on glass coverslips in 24-well plates and either infected or induced with doxycycline (0.2 μg/mL). Cells were harvested for immunofluorescence at the indicated time points, washed in phosphate-buffered saline (PBS), fixed in 4% paraformaldehyde for 15 minutes and post-fixed with 100% ice-cold methanol for 5 minutes. Coverslips were then blocked and stained as described (Lilley et al. (2011) PLoS Pathog., 7:e1002084) and mounted using ProLong Gold Antifade Reagent (Life Technologies). Immunofluorescence was visualized using a Zeiss LSM Confocal microscope and ZEN 2011 software. Images were processed using ImageJ and assembled with Adobe CS6. All scale bars show in the Figures are 10 μm unless otherwise stated.

For experiment [2], the system named is HMGB1 domains (A box, B box, acidic tail). Briefly: Immunofluorescence of HMGB1-GFP domain constructs upon protein VII-HA expression. Particulars: A549 cells, 2 days after transfection. The procedure:
as §1
FIG. 8A provides a schematic of the different GFP constructs expressing distinct HMGB1 domains. […] Immunofluorescence of the HMGB1-GFP constructs 2 days after transfection of A549s cells under control conditions or upon expression of Ad5 protein VII-HA is shown in FIG. 8B. […] Only full-length HMGB1 and the HMGB1 A box are relocalized upon expression of protein VII. […] Next we tested the immobilization of this construct in chromatin upon protein VII expression.

The target of experiment [3] is T1, HMGB1. Briefly: Release assay of HMGB1 in THP-1 cells. Also on record: endogenous in cells. The conditions noted are these: PMA-treated THP-1 cells, LPS plus nigericin. Here is the method:
THP-1 cells were seeded at a density of 2×10^5 cells per well in a 24-well plate, and stimulated into macrophage-like cells by addition of 10 ng/mL PMA for 48 hours. Cells were washed in PBS and transduced with recombinant adenovirus vectors expressing only GFP or protein VII-GFP such that >90% of cells were GFP positive. At 48 hours post transduction, cells were washed and 200 μL of serum free RPMI was added. To stimulate the inflammasome, LPS (Sigma-Aldrich L2880) with a final concentration of 0.5 μg/mL was added to wells and incubated for 2 hours, then nigericin (Sigma-Aldrich N7143) was added with a final concentration of 10 μM for 1 hour. Supernatants were collected and proteins precipitated overnight at 4° C. with a final concentration of 20% trichloroacetic acid (Sigma), washed with acetone, dried, and resuspended in 1×sample buffer with reducing agent (Invitrogen). For ELISA analysis, supernatants were harvested directly and HMGB1 content was detected by the manufacturer's instructions (Chondrex 6010). Cells were also harvested by the addition of 1×sample buffer with reducing agent (Invitrogen) and boiled. Supernatants and lysates were analyzed together by western blot.

For experiment [4], the target named is T2, HMGB2 (Homo sapiens, UniProt P26583).
T2 construct: endogenous in cells; host or cells: THP-1 (PMA-differentiated)
T2 sequence (P26583 1-209): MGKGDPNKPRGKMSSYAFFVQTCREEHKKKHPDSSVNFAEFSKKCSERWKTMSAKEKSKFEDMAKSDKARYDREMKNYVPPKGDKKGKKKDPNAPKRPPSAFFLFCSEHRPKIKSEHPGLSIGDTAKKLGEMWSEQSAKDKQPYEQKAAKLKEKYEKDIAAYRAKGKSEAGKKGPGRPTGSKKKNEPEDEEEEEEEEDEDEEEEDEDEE
Briefly: Salt fractionation of nuclei, western blot for HMGB2. Particulars: upon protein VII expression. The procedure:
Salt fractionation of nuclei was adapted from established protocols (Zaret, K. (2005) Micrococcal nuclease analysis of chromatin structure. Curr. Protoc. Mol., Biol. Chapter 21, Unit 21.1; Teves et al. (2012) Methods Mol. Biol., 833:421-432). Briefly, 2-4×10^7 cells were collected and resuspended in 2 mL of ice-cold buffer I (0.32 M sucrose, 60 mM KCl, 15 mM NaCl, 5 mM MgCl2, 0.1 mM EGTA, 15 mM Tris, pH 7.5, 0.5 mM DTT, 0.1 mM PMSF and protease inhibitor cocktail from Roche). To dissolve the plasma membrane, 2 mL ice-cold buffer I supplemented with 0.1% IGEPAL were added and samples were incubated on ice for 10 minutes. The 4 mL of nuclei was layered on 8 mL of ice-cold buffer II (1.2 M sucrose, 60 mM KCl, 15 mM NaCl, 5 mM MgCl2, 0.1 mM EGTA, 15 mM Tris, pH 7.5, 0.5 mM DTT, 0.1 mM PMSF and protease inhibitor cocktail from Roche) and centrifuged for 20 minutes at 10,000×g and 4° C. The pelleted nuclei were resuspended in 400 μL buffer III (10 mM Tris pH 7.4, 2 mM MgCl2, 0.1 mM PMSF) supplemented with 5 mM CaCl2 and the DNA was digested to mononucleosomes by addition of 1 unit of MNase (Sigma-Aldrich, N3755). […] The final pellet was resuspended in 400 μL ddH2O and all samples were analyzed together by western blot. An aliquot of each supernatant was set aside for DNA purification using a PCR purification kit (Qiagen) and analyzed by agarose gel electrophoresis. […]
In general terms: Immunoblotting shows a protein as a band on a membrane.

B1: protein VII: mature protein VII of human adenovirus type 5 (SEQ ID NO:1), expressed in cells, mostly with C-terminal HA tag (protein)
chain: AKKRSDQHPVRVRGHYRAPWGAHKRGRTGRTTVDDAIDAVVEEARNYTPTPPPVSTVDAAIQTVVRGARRYAKMKRRRRRVARRHRRRPGTAAQRAAAALLNRARRTGRRAAMRAARRLAAGIVTVPPRSRRRAAAAAAAAISAMTQGRRGNVYWVRDSVSGLRVPVRTRPPRN
modifications: C-terminal HA tag; Human adenovirus 5
Consider B1, for which the “Relocalization of HMGB1 (immunofluorescence)” value in experiment [1] was “relocalization of HMGB1”. Also, the “Relocalization of HMGB1 A box” value in experiment [2] is listed as “relocalizes”. Moreover, the HMGB1 in supernatants result in experiment [3] was “reduced levels”. Moreover, the “Chromatin association of HMGB2 (fractionated nuclei)” value in experiment [4] was “Increased chromatin association”.
